# Experiments:
# pro-E-cadherin (human) = pro-E-cadherin (human) (UniProt P12830); test: co-IP
# pro-N-cadherin (human) = pro-N-cadherin (human) (UniProt P19022); test: co-IP
# Sequence of UniProt P19022 (P19022 26-906): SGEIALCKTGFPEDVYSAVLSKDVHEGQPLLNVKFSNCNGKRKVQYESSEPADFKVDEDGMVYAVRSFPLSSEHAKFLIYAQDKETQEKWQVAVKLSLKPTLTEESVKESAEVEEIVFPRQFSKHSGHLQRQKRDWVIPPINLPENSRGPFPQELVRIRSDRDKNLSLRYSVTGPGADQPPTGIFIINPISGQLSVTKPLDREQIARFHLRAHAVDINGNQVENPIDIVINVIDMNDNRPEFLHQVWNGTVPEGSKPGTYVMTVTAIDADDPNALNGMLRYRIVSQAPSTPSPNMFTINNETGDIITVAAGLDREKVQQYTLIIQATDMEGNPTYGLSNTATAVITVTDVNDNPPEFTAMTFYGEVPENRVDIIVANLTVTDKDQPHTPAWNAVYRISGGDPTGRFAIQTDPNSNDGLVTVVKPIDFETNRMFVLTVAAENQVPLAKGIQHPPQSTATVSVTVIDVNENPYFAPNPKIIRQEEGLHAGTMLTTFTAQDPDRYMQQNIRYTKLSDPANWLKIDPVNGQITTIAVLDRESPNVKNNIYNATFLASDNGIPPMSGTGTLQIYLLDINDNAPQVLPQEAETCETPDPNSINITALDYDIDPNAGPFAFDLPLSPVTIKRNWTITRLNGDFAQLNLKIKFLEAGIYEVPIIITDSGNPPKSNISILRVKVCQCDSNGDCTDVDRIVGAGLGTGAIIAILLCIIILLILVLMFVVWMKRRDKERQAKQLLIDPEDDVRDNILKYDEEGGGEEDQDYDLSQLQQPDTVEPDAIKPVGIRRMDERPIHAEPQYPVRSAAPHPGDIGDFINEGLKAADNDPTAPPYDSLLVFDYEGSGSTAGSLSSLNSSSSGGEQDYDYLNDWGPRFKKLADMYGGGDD
# Sequence of α-catenin (P35221 whole entry): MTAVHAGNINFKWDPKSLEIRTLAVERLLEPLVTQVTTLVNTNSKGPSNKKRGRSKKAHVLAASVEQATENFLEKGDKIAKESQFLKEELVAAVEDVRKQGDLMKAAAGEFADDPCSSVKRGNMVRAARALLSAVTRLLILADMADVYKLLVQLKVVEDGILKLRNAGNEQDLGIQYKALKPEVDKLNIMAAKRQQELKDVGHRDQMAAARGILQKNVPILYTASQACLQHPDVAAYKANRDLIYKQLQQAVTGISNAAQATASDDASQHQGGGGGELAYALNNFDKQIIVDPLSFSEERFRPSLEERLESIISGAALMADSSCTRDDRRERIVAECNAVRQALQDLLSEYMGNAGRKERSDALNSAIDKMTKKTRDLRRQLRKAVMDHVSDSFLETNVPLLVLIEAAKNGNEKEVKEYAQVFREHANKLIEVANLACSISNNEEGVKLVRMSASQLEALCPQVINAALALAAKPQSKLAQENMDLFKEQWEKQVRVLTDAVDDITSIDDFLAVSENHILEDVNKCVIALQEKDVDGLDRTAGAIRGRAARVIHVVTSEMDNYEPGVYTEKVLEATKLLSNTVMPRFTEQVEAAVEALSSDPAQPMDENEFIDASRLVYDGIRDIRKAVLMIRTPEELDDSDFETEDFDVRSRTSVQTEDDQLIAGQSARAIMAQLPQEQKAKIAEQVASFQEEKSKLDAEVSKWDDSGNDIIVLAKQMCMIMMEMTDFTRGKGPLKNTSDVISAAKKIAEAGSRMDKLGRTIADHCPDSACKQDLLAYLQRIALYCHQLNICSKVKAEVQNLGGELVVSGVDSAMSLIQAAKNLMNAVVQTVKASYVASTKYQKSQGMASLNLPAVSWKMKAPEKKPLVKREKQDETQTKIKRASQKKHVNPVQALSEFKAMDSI
# Sequence of UniProt P12830 (P12830 23-882): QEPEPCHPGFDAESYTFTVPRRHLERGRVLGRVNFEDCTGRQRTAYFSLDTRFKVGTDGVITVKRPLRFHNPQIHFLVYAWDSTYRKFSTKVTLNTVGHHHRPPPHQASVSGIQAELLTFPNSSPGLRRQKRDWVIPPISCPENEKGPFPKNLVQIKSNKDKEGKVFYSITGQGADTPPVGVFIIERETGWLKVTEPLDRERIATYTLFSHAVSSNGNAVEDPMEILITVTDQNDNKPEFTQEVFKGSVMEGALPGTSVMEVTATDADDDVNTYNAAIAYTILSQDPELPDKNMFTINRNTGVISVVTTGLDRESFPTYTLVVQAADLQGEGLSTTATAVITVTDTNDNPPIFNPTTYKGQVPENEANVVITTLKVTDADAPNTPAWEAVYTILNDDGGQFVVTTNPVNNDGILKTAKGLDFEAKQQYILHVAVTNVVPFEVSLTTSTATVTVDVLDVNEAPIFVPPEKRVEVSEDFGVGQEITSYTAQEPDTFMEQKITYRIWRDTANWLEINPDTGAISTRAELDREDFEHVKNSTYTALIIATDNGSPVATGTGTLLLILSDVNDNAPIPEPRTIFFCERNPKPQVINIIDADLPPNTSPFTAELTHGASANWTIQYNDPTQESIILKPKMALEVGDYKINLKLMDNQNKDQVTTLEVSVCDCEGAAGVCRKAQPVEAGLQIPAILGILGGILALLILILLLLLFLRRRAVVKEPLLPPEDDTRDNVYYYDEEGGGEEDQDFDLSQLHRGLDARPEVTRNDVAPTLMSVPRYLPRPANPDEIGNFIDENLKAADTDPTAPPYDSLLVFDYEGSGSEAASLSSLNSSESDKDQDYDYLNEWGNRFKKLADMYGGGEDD
substance,measurement,setting,value
α-catenin (from UniProt P35221 1-906) (natural protein),percent of pro-cadherin molecules in a complex with α-catenin,pro-E-cadherin (human),81%
same,percent of pro-cadherin molecules in a complex with α-catenin,pro-N-cadherin (human),92%

# — article PMC2742162
